# Test results taken from PMC3688735.
# Target: mKate
# Assay: SEC; gel filtration on a 1x90 cm Econo-column packed with Sephacryl-S200, equilibrated with 25 mM Tris-HCl pH 7.5, 150 mM NaCl; self-association of the purified fluorescent protein
substance,measurement,value
mKate,stoichiometry N,2
